Data as given in patent publication US20220363757A1 (SYMPHOGEN A S, published 2022).
Where a chain is given by its changes, count along the chain named.

T1: human LAG-3 domain 1-2 Fc fusion, point mutation #49 G105A (human, UniProt P18627 23-266)
T1 construct: not shown: human IgG1 Fc, AA P101-K330
T1 sequence: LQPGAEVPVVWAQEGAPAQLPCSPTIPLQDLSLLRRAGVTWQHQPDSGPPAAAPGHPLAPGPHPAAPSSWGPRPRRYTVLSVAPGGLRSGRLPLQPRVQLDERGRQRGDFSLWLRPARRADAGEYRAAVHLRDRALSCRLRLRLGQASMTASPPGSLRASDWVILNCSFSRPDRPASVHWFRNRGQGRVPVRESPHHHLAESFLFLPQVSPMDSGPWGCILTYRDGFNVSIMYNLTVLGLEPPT

T2: human LAG-3 domain 1-2 Fc fusion, point mutation #52 G108A (human, UniProt P18627 23-266)
T2 construct: not shown: human IgG1 Fc, AA P101-K330
T2 sequence: T1 sequence with A83G, G86A

T3: human LAG-3 domain 1-2 Fc fusion, point mutation #58 P115A (human, UniProt P18627 23-266)
T3 construct: not shown: human IgG1 Fc, AA P101-K330
T3 sequence: T1 sequence with A83G, P93A

T4: human LAG-3 domain 1-2 Fc fusion, point mutation #79 S159A (human, UniProt P18627 23-266)
T4 construct: not shown: human IgG1 Fc, AA P101-K330
T4 sequence: T1 sequence with A83G, S137A

T5: human LAG-3 domain 1-2 Fc fusion, point mutation #1 A40S (human, UniProt P18627 23-266)
T5 construct: not shown: human IgG1 Fc, AA P101-K330
T5 sequence: T1 sequence with A18S, A83G

T6: human LAG-3 domain 1-2 Fc fusion, point mutation #4 S45A (human, UniProt P18627 23-266)
T6 construct: not shown: human IgG1 Fc, AA P101-K330
T6 sequence: T1 sequence with S23A, A83G

T7: human LAG-3 domain 1-2 Fc fusion, point mutation #25 H78A (human, UniProt P18627 23-266)
T7 construct: not shown: human IgG1 Fc, AA P101-K330
T7 sequence: T1 sequence with H56A, A83G

T8: human LAG-3 domain 1-2 Fc fusion, point mutation #33 P86A (human, UniProt P18627 23-266)
T8 construct: not shown: human IgG1 Fc, AA P101-K330
T8 sequence: T1 sequence with P64A, A83G

T9: human LAG-3 domain 1-2 Fc fusion, point mutation #40 G93A (human, UniProt P18627 23-266)
T9 construct: not shown: human IgG1 Fc, AA P101-K330
T9 sequence: T1 sequence with G71A, A83G

B1: Fab fragment of antibody 15532 (Fab, V domains shown, not shown: a dimerising Fc or GST)
VH: QVQLQQWGAGLLRPSETLSLTCAVYGESFSGYYWNWIRQPPGKGLEWIGEINHSGSTNYNPSLKSRVTISVDTSKTQFSLKLSSVTAADTAVYYCARGWDLLDWNDYWNEYWGQGTLVTVSS
VL: EIVLTQSPATLSLSPGERATLSCRASQSVSSYLAWYQQKPGQAPRLLIYDASNRATGIPARFSGSGSGTDFTLTISSLEPEDFAVYYCQQRSNWPLTFGGGTKVEIKR
notes: monomeric Fab made by GingisKHAN digestion of the IgG1
B2: Fab fragment of antibody 15431 (Fab, V domains shown, not shown: a dimerising Fc or GST)
VH: QVQLQQSGPGLVKPSQTLSLTCAISGDSVSSNSAAWNWIRQSPSRGLEWLGRTYYRSKWYNDYAVSVKSRITINPDTSKNQFSLQLNSVTPEDTAVYYCARDDDWNDFDYWGQGTLVTVSS
VL: B1 VL
notes: as for B1
B3: Fab fragment of antibody 15572 (Fab, V domains shown, not shown: a dimerising Fc or GST)
VH: QLQLQESGPGLVKPSETLSLTCTVSGDSISSSSYYWGWIRQPPGKGLEWIGSIFYSGNTYYNPSLKSRVTISVDTSKNQFSLKLSSVTAADTAVYYCAREDDFLTDYYGAFDIWGQGTMVTVSS
VL: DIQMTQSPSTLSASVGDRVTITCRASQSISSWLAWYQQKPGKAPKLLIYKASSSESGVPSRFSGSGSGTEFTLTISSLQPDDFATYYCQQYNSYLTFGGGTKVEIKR
notes: as for B1
B4: Fab fragment of antibody 15011 (Fab, V domains shown, not shown: a dimerising Fc or GST)
VH: EVQLLESGGGLVQPGGSLRLSCAASGFDFRSYAMMWVRQAPGKGLEWVGGINGEVGGSNTYYAPAVKGRATISRDNSKNTLYLQMNSLRAEDTAVYYCVKGAGACGICNDDIDAWGQGTLVTVSS
VL: SYELTQDPAVSVALGQTVRITCSGAGSYAGSYYYGWHQQKPGQAPVTVIYDNDKRPSNIPDRFSGSSSGNTASLTITGAQAEDEADYYCGSTNDNDDGGLFGSGTKVTVLG
notes: as for B1

target: T1, human LAG-3 domain 1-2 Fc fusion, point …; test: SPR, Fab over captured mutant LAG-3-Fc;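 also: fc fusion variants captured on anti-human IgG Fc sensor, Fab injected with association then dissociation phases, KD obtained from Langmuir one-to-one fit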

KD mutant/KD wild type	Binder
1.1 fold	B1
0.4 fold	B2
0.4 fold	B3
1.6 fold	B4

target: T2, human LAG-3 domain 1-2 Fc fusion, point …; test: SPR, Fab over captured mutant LAG-3-Fc;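 also: fc fusion variants captured on anti-human IgG Fc sensor, Fab injected with association then dissociation phases, KD obtained from Langmuir one-to-one fit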

KD mutant/KD wild type	Binder
1 fold	B1
0.3 fold	B2
0.4 fold	B3
0.5 fold	B4

target: T3, human LAG-3 domain 1-2 Fc fusion, point …; test: SPR, Fab over captured mutant LAG-3-Fc;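 also: fc fusion variants captured on anti-human IgG Fc sensor, Fab injected with association then dissociation phases, KD obtained from Langmuir one-to-one fit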

KD mutant/KD wild type	Binder
1 fold	B1
1.1 fold	B2
1.4 fold	B3
1.3 fold	B4

target: T4, human LAG-3 domain 1-2 Fc fusion, point …; test: SPR, Fab over captured mutant LAG-3-Fc;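 also: fc fusion variants captured on anti-human IgG Fc sensor, Fab injected with association then dissociation phases, KD obtained from Langmuir one-to-one fit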

KD mutant/KD wild type	Binder
0.7 fold	B1
0.9 fold	B2
0.3 fold	B3
0.7 fold	B4

target: T5, human LAG-3 domain 1-2 Fc fusion, point …; test: SPR, Fab over captured mutant LAG-3-Fc

KD mutant/KD wild type	binding result	Binder
4.4 fold	–	B1
–	no binding (tested: 300 nM)	B2
–	no binding (tested: 300 nM)	B3
0.6 fold	–	B4

target: T6, human LAG-3 domain 1-2 Fc fusion, point …; test: SPR, Fab over captured mutant LAG-3-Fc

KD mutant/KD wild type	Binder
1.7 fold	B1
0.4 fold	B2
0.6 fold	B3
0.7 fold	B4

target: T7, human LAG-3 domain 1-2 Fc fusion, point …; test: SPR, Fab over captured mutant LAG-3-Fc

KD mutant/KD wild type	Binder
0.9 fold	B1
0.4 fold	B2
0.5 fold	B3
0.7 fold	B4

target: T8, human LAG-3 domain 1-2 Fc fusion, point …; test: SPR, Fab over captured mutant LAG-3-Fc

KD mutant/KD wild type	Binder
6.1 fold	B1
0.6 fold	B2
0.7 fold	B3
0.7 fold	B4

target: T9, human LAG-3 domain 1-2 Fc fusion, point …; test: SPR, Fab over captured mutant LAG-3-Fc

KD mutant/KD wild type	Binder
7.1 fold	B1
11.6 fold	B2
0.8 fold	B3
1 fold	B4
